Assay results as given in FireProtDB (doi:10.1139/o86-132).

Settings: Aspergillus oryzae (strain ATCC 42149 / RIB 40), pH 7, 25 °C, GdnHCl, CD, cacodylate 0.013 M, reversible: yes, whole UniProt chain shown

B1: Guanyl-specific ribonuclease T1 wild type, P00651 (protein)
chain: MMYSKLLTLTTLLLPTALALPSLVERACDYTCGSNCYSSSDVSTAQAAGYQLHEDGETVGSNSYPHKYNNYEGFDFSVSSPYYEWPILSSGDVYSGGSPGADRVVFNENNQLAGVITHTGASGNNFVECT
Which results are given for B1?
denaturant m value ((NH4)2SO4 0.15 M): 2.85 kcal/mol/M; denaturant midpoint (higher = more stable) ((NH4)2SO4 0.15 M): 3.16 M; unfolding free energy ((NH4)2SO4 0.15 M): 40.2 kJ/mol; denaturant m value ((NH4)2SO4 0.30 M): 2.9 kcal/mol/M; denaturant midpoint (higher = more stable) ((NH4)2SO4 0.30 M): 3.37 M; unfolding free energy ((NH4)2SO4 0.30 M): 43 kJ/mol; denaturant m value (CsCl 0.49 M): 3.18 kcal/mol/M; denaturant midpoint (higher = more stable) (CsCl 0.49 M): 2.81 M; unfolding free energy (CsCl 0.49 M): 37.2 kJ/mol; denaturant m value (KCl 0.1 M): 3.04 kcal/mol/M; denaturant midpoint (higher = more stable) (KCl 0.1 M): 2.9 M; unfolding free energy (KCl 0.1 M): 36.8 kJ/mol; denaturant m value (Li2SO4 0.20 M): 2.82 kcal/mol/M; denaturant midpoint (higher = more stable) (Li2SO4 0.20 M): 3.16 M; unfolding free energy (Li2SO4 0.20 M): 40.2 kJ/mol; denaturant m value (Li2SO4 0.40 M): 2.82 kcal/mol/M; denaturant midpoint (higher = more stable) (Li2SO4 0.40 M): 3.35 M; unfolding free energy (Li2SO4 0.40 M): 42.6 kJ/mol; denaturant m value (LiBr 0.76 M): 3.14 kcal/mol/M; denaturant midpoint (higher = more stable) (LiBr 0.76 M): 2.15 M; unfolding free energy (LiBr 0.76 M): 27.4 kJ/mol; denaturant m value (LiBr 1.52 M): 3.41 kcal/mol/M; denaturant midpoint (higher = more stable) (LiBr 1.52 M): 1.48 M; unfolding free energy (LiBr 1.52 M): 18.9 kJ/mol; denaturant m value (LiCi 0.50 M): 2.71 kcal/mol/M; denaturant midpoint (higher = more stable) (LiCi 0.50 M): 2.75 M; unfolding free energy (LiCi 0.50 M): 35 kJ/mol; denaturant m value (LiCi 0.99 M): 3.13 kcal/mol/M; denaturant midpoint (higher = more stable) (LiCi 0.99 M): 2.57 M; unfolding free energy (LiCi 0.99 M): 32.6 kJ/mol; denaturant m value (LiSCN 0.09 M): 3.05 kcal/mol/M; denaturant midpoint (higher = more stable) (LiSCN 0.09 M): 2.72 M; unfolding free energy (LiSCN 0.09 M): 34.6 kJ/mol; denaturant m value (LiSCN 0.34 M): 2.87 kcal/mol/M; denaturant midpoint (higher = more stable) (LiSCN 0.34 M): 2.06 M; unfolding free energy (LiSCN 0.34 M): 26.2 kJ/mol; denaturant m value (LiSCN 0.69 M): 3.08 kcal/mol/M; denaturant midpoint (higher = more stable) (LiSCN 0.69 M): 1.34 M; unfolding free energy (LiSCN 0.69 M): 17.1 kJ/mol; denaturant m value (NH4Cl 0.45 M): 3.02 kcal/mol/M; denaturant midpoint (higher = more stable) (NH4Cl 0.45 M): 2.83 M; unfolding free energy (NH4Cl 0.45 M): 35.6 kJ/mol; denaturant m value (Na2SO4 0.15 M): 2.83 kcal/mol/M; denaturant midpoint (higher = more stable) (Na2SO4 0.15 M): 3.12 M; unfolding free energy (Na2SO4 0.15 M): 39.7 kJ/mol; denaturant m value (NaBr 0.50 M): 3.42 kcal/mol/M; denaturant midpoint (higher = more stable) (NaBr 0.50 M): 2.53 M; unfolding free energy (NaBr 0.50 M): 32.2 kJ/mol; denaturant m value (NaBr 0.99 M): 2.97 kcal/mol/M; denaturant midpoint (higher = more stable) (NaBr 0.99 M): 2.27 M; unfolding free energy (NaBr 0.99 M): 28.9 kJ/mol; denaturant m value (NaSCN 0.25 M): 3.11 kcal/mol/M; denaturant midpoint (higher = more stable) (NaSCN 0.25 M): 2.39 M; unfolding free energy (NaSCN 0.25 M): 30.4 kJ/mol; denaturant m value (NaSCN 0.49 M): 2.93 kcal/mol/M; denaturant midpoint (higher = more stable) (NaSCN 0.49 M): 1.91 M; unfolding free energy (NaSCN 0.49 M): 24.3 kJ/mol; denaturant m value (RbCl 0.50 M): 2.89 kcal/mol/M; denaturant midpoint (higher = more stable) (RbCl 0.50 M): 2.89 M; unfolding free energy (RbCl 0.50 M): 35.1 kJ/mol
